# Laboratory results as given in IntAct's records for PubMed 23706744.
# B1: Protein arginine N-methyltransferase 1 (Saccharomyces cerevisiae), P38074 (parent)
# chain: MSKTAVKDSATEKTKLSESEQHYFNSYDHYGIHEEMLQDTVRTLSYRNAIIQNKDLFKDKIVLDVGCGTGILSMFAAKHGAKHVIGVDMSSIIEMAKELVELNGFSDKITLLRGKLEDVHLPFPKVDIIISEWMGYFLLYESMMDTVLYARDHYLVEGGLIFPDKCSIHLAGLEDSQYKDEKLNYWQDVYGFDYSPFVPLVLHEPIVDTVERNNVNTTSDKLIEFDLNTVKISDLAFKSNFKLTAKRQDMINGIVTWFDIVFPAPKGKRPVEFSTGPHAPYTHWKQTIFYFPDDLDAETGDTIEGELVCSPNEKNNRDLNIKISYKFESNGIDGNSRSRKNEGSYLMH
# B2: Protein arginine N-methyltransferase 1 (Saccharomyces cerevisiae), P38074 (parent)
# chain: B1 chain
# partner: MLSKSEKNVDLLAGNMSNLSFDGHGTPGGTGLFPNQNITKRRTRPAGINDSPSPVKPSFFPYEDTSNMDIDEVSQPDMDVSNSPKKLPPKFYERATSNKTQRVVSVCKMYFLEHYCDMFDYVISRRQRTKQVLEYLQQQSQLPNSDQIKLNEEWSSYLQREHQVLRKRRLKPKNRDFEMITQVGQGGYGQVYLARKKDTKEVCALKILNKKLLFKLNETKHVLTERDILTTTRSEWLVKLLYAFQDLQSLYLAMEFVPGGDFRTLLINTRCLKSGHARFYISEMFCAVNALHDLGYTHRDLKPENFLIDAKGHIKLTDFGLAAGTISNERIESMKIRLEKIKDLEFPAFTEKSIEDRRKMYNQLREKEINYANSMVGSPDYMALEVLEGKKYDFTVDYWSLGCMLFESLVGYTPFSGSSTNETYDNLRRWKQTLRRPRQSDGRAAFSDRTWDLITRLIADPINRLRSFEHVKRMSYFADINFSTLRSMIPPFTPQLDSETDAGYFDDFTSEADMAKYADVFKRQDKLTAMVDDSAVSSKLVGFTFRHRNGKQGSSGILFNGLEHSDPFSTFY
# Variants of: B1
# Conditions: with pp2a2_yeast PPH22, P23595
# pp2a2_yeast PPH22, P23595, sequence (P23595 whole entry): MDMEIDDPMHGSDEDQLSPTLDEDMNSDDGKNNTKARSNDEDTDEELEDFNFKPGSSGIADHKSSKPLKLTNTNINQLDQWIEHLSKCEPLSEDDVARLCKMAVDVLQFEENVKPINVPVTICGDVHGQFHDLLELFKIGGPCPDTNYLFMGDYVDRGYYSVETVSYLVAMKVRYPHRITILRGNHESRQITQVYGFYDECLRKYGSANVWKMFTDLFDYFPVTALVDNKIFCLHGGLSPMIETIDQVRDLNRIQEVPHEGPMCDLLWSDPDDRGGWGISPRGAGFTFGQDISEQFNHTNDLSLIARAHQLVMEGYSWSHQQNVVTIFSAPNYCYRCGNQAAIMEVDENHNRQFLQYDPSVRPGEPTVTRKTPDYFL
row,Variant,effect of a mutation on the interaction
1,S9A,disrupting interaction strength

# Variants of: B2
# Conditions: with dbf2_yeast DBF2, P22204
row,Variant,effect of a mutation on the interaction
1,S9A,disrupting interaction strength
